This note sets out measurements from publication PMC10381965.

In the data set the target is CBF1;CCAN (CENP-LN, CENP-OPQU+, CENP-HIK-TW, CENP-C) (Saccharomyces cerevisiae;Saccharomyces …, UniProt P17106;P38907;P38265;Q06675;Q02732;P53298;P38313;Q12493;Q06162;Q12262;Q12748;P47 …, |). Put plainly: cryo-EM structure (3.4 Å); free C0N3 DNA without octamer; topological entrapment, 25 bp contacted; Binding buffer for IK assembly not given in the material; proteins purified in 20 mM Hepes pH 8.0, 300 mM NaCl, 0.5 mM TCEP.

B1: C0N3 153 bp (chimeric CEN3/W601) (dsDNA)
DNA 1: ATAAGTCACATGGTGCCGAGGCCGCTCAATTGGTCGTAGACAGCTCTAGCACCGCTTAAACGCACGTACGCGCTGTCCCCCGCGTTTTAATATTAGTGTATTTGATTTCCGAAAGTTAAAAAAGAAATAGTAAGAAATATATATTTCATTGAA
DNA 2: TTCAATGAAATATATATTTCTTACTATTTCTTTTTTAACTTTCGGAAATCAAATACACTAATATTAAAACGCGGGGGACAGCGCGTACGTGCGTTTAAGCGGTGCTAGAGCTGTCTACGACCAATTGAGCGGCCTCGGCACCATGTGACTTAT
Consider B1, for which the binding result was “binds”.
